The values below come from the supplement of paper PMC5998384.

The subject of series [1] is HeLa Kyoto. The experiment in a line: solubility in G1/S (NP-40 vs SDS abundance) (log2 ratio); higher = more soluble. To be noted: cell cycle stage: G1/S.
The subject of series [2] is HeLa Kyoto. Description: solubility change mitosis vs G1/S (difference of NP-40 vs SDS log2 ratios) (log2 ratio difference); higher = more soluble in mitosis.
Series [3] deals with HeLa Kyoto. The experiment in a line: melting temperature (median over replicates), in situ; higher = more thermally stable.
Series [4] has as its system HeLa Kyoto. Description: thermal stability score vs G1/S (z-score of summed log2 fold changes over temperatures); higher = more thermally stable than in G1/S.
Where [5] appears, read: cell cycle stage: early G1 (4.5 h after nocodazole release).
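For melting temperature (median over replicates), in situ in this document: HeLa Kyoto cells synchronized by double thymidine or nocodazole block, proteins quantified by TMT10plex mass spectrometry, three independent biological replicates.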
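For solubility change mitosis vs G1/S (difference of NP-40 vs SDS log2 ratios) in this document: synchronized HeLa Kyoto cells (double thymidine block for G1/S, nocodazole release for mitosis), protein amounts in NP-40 versus SDS lysates quantified by mass spectrometry, three biological replicates.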
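For solubility in G1/S (NP-40 vs SDS abundance) in this document: HeLa Kyoto cells arrested at G1/S by double thymidine block, proteins quantified by TMT10plex mass spectrometry in mild NP-40 versus SDS extracts, three biological replicates.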
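For thermal stability score vs G1/S (z-score of summed log2 fold changes over temperatures) in this document: synchronized HeLa Kyoto cells, proteins quantified by TMT10plex mass spectrometry, three biological replicates, mitosis taken 0.5 h after nocodazole release, G1/S directly after double thymidine block.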

For “MAPARCFSARLRTVFQGVGHWALSTWAGLKPSRLLPQRASPRLLSVGRADLAKHQELPGKKLLSEKKLKRYFVDYRRVLVCGGNGGAGASCFHSEPRKEFGGPDGGDGGNGGHVILRVDQQVKSLSSVLSRYQGFSGEDGGSKNCFGRSGAVLYIRVPVGTLVKEGGRVVADLSCVGDEYIAALGGAGGKGNRFFLANNNRAPVTCTPGQPGQQRVLHLELKTVAHAGMVGFPNAGKSSLLRAISNARPAVASYPFTTLKPHVGIVHYEGHLQIAVADIPGIIRGAHQNRGLGSAFLRHIERCRFLLFVVDLSQPEPWTQVDDLKYELEMYEKGLSARPHAIVANKIDLPEAQANLSQLRDHLGQEVIVLSALTGENLEQLLLHLKVLYDAYAEAELGQGRQPLRW [MTG2]”, in the series with HeLa Kyoto [1], the “solubility in G1/S (log2)” value turned out to be 0.239. Besides, the “solubility change mitosis (log2)” value with HeLa Kyoto [2] worked out at 0.00581. For the same sequence, the results for the melting temperature in the series with HeLa Kyoto [3] (cell cycle stage: G1/S) and in the series on HeLa Kyoto [3] (cell cycle stage: mitosis) were 49.6 °C and 49.1 °C, respectively. Further, the thermal stability score in the series with HeLa Kyoto [4] (setting [5]) was -0.446; in the series on HeLa Kyoto [4] (cell cycle stage: mitosis), 0.103.

Take “MAPDPVAAETAAQGPTPRYFTWDEVAQRSGCEERWLVIDRKVYNISEFTRRHPGGSRVISHYAGQDATDPFVAFHINKGLVKKYMNSLLIGELSPEQPSFEPTKNKELTDEFRELRATVERMGLMKANHVFFLLYLLHILLLDGAAWLTLWVFGTSFLPFLLCAVLLSAVQAQAGWLQHDFGHLSVFSTSKWNHLLHHFVIGHLKGAPASWWNHMHFQHHAKPNCFRKDPDINMHPFFFALGKILSVELGKQKKKYMPYNHQHKYFFLIGPPALLPLYFQWYIFYFVIQRKKWVDLAWMITFYVRFFLTYVPLLGLKAFLGLFFIVRFLESNWFVWVTQMNHIPMHIDHDRNMDWVSTQLQATCNVHKSAFNDWFSGHLNFQIEHHLFPTMPRHNYHKVAPLVQSLCAKHGIEYQSKPLLSAFADIIHSLKESGQLWLDAYLHQ [FADS1]”: the “solubility in G1/S (log2)” value with HeLa Kyoto [1] was -0.124. The “solubility change mitosis (log2)” value with HeLa Kyoto [2] was -0.092. The melting temperature in the series with HeLa Kyoto [3] (cell cycle stage: G1/S) came to 51.9 °C; in the series with HeLa Kyoto [3] (cell cycle stage: mitosis), 51.3 °C. The thermal stability score with HeLa Kyoto [4] (setting [5]) was -0.752; in the series on HeLa Kyoto [4] (cell cycle stage: mitosis) it was -0.737.

For the sequence “MAPHDPGSLTTLVPWAAALLLALGVERALALPEICTQCPGSVQNLSKVAFYCKTTRELMLHARCCLNQKGTILGLDLQNCSLEDPGPNFHQAHTTVIIDLQANPLKGDLANTFRGFTQLQTLILPQHVNCPGGINAWNTITSYIDNQICQGQKNLCNNTGDPEMCPENGSCVPDGPGLLQCVCADGFHGYKCMRQGSFSLLMFFGILGATTLSVSILLWATQRRKAKTS [ATRAID]”, the “solubility in G1/S (log2)” value in the series with HeLa Kyoto [1] was -0.19. The “solubility change mitosis (log2)” value with HeLa Kyoto [2] worked out at 0.252. Besides, the results for the melting temperature with HeLa Kyoto [3] (cell cycle stage: G1/S) and in the series on HeLa Kyoto [3] (cell cycle stage: mitosis) were 53.9 °C and 54.8 °C, respectively. Besides, the figures for the thermal stability score in the series on HeLa Kyoto [4] (setting [5]) and in the series with HeLa Kyoto [4] (cell cycle stage: mitosis) were 0.782 and 0.854, respectively.

In the case of “MAPLGGAPRLVLLFSGKRKSGKDFVTEALQSRLGADVCAVLRLSGPLKEQYAQEHGLNFQRLLDTSTYKEAFRKDMIRWGEEKRQADPGFFCRKIVEGISQPIWLVSDTRRVSDIQWFREAYGAVTQTVRVVALEQSRQQRGWVFTPGVDDAESECGLDNFGDFDWVIENHGVEQRLEEQLENLIEFIRSRL [PMVK]”, in the series with HeLa Kyoto [1], the “solubility in G1/S (log2)” value was -0.0155. In the series on HeLa Kyoto [2], the “solubility change mitosis (log2)” value was -0.0243. In addition, the melting temperature with HeLa Kyoto [3] (cell cycle stage: G1/S) is 46.6 °C; in the series on HeLa Kyoto [3] (cell cycle stage: mitosis), 47.8 °C. The figures for the thermal stability score in the series on HeLa Kyoto [4] (setting [5]) and in the series on HeLa Kyoto [4] (cell cycle stage: mitosis) were 1.41 and 1.71, respectively.

In the case of “MAPLLLQLAVLGAALAAAALVLISIVAFTTATKMPALHRHEEEKFFLNAKGQKETLPSIWDSPTKQLSVVVPSYNEEKRLPVMMDEALSYLEKRQKRDPAFTYEVIVVDDGSKDQTSKVAFKYCQKYGSDKVRVITLVKNRGKGGAIRMGIFSSRGEKILMADADGATKFPDVEKLEKGLNDLQPWPNQMAIACGSRAHLEKESIAQRSYFRTLLMYGFHFLVWFLCVKGIRDTQCGFKLFTREAASRTFSSLHVERWAFDVELLYIAQFFKIPIAEIAVNWTEIEGSKLVPFWSWLQMGKDLLFIRLRYLTGAWRLEQTRKMN [ALG5]”, the “solubility in G1/S (log2)” value in the series with HeLa Kyoto [1] was -0.514. In the series on HeLa Kyoto [2], the “solubility change mitosis (log2)” value was -0.147. The melting temperature in the series on HeLa Kyoto [3] (cell cycle stage: G1/S) stood at 53 °C; in the series with HeLa Kyoto [3] (cell cycle stage: mitosis) it was 53.8 °C. Further, the thermal stability score with HeLa Kyoto [4] (setting [5]) was -0.322; with HeLa Kyoto [4] (cell cycle stage: mitosis), -1.32.

As to “MAPRRVRSFLRGLPALLLLLLFLGPWPAASHGGKYSREKNQPKPSPKRESGEEFRMEKLNQLWEKAQRLHLPPVRLAELHADLKIQERDELAWKKLKLDGLDEDGEKEARLIRNLNVILAKYGLDGKKDARQVTSNSLSGTQEDGLDDPRLEKLWHKAKTSGKFSGEELDKLWREFLHHKEKVHEYNVLLETLSRTEEIHENVISPSDLSDIKGSVLHSRHTELKEKLRSINQGLDRLRRVSHQGYSTEAEFEEPRVIDLWDLAQSANLTDKELEAFREELKHFEAKIEKHNHYQKQLEIAHEKLRHAESVGDGERVSRSREKHALLEGRTKELGYTVKKHLQDLSGRISRARHNEL [LRPAP1]”, the “solubility in G1/S (log2)” value in the series on HeLa Kyoto [1] amounted to 0.724. Moreover, the “solubility change mitosis (log2)” value with HeLa Kyoto [2] is -0.0876. In addition, the values for the melting temperature in the series with HeLa Kyoto [3] (cell cycle stage: G1/S) and with HeLa Kyoto [3] (cell cycle stage: mitosis) were 55.3 °C and 54.1 °C, respectively. Further, the thermal stability score in the series with HeLa Kyoto [4] (setting [5]) was 2.72; with HeLa Kyoto [4] (cell cycle stage: mitosis), -0.375.
